Source: US6835824

Biological target: nine-person peanut-specific IgE antibody pool (pooled serum of patients with AD and positive peanut challenge)
Assay: IgE ELISA inhibition, crude peanut coated, pooled serum

IC50: 5.5 ng/mL
B1: Ara h I, 63.5 kD peanut allergen, native, purified from Florunner peanut extract (protein, Arachis hypogaea, UniProt P43238 85-626, looked up)
chain: RSPPGERTRGRQPGDYDDDRRQPRREEGGRWGPAGPREREREEDWRQPREDWRRPSHQQPRKIRPEGREGEQEWGTPGSHVREETSRNNPFYFPSRRFSTRYGNQNGRIRVLQRFDQRSRQFQNLQNHRIVQIEAKPNTLVLPKHADADNILVIQQGQATVTVANGNNRKSFNLDEGHALRIPSGFISYILNRHDNQNLRVAKISMPVNTPGQFEDFFPASSRDQSSYLQGFSRNTLEAAFNAEFNEIRRVLLEENAGGEQEERGQRRWSTRSSENNEGVIVKVSKEHVEELTKHAKSVSKKGSEEEGDITNPINLREGEPDLSNNFGKLFEVKPDKKNPQLQDLDMMLTCVEIKEGALMLPHFNSKAMVIVVVNKGTGNLELVAVRKEQQQRGRREEEEDEDEEEEGSNREVRRYTARLKEGDVFIMPAAHPVAINASSELHLLGFGINAENNHRIFLAGDKDNVIDQIEKQAKDLAFPGSGEQVEKLIKNQKESHFVSARPQSQSQSPSSPEKESPEKEDQEEENQGGKGPLLSILKAFN
modifications: glycoprotein
